Source: US12662542B2, “Agnostic anti-mullerian hormone receptor binding peptides” (OVARES D LLC, priority 2019, dated 2026)
Square brackets hold non-standard residues; d marks the D form. Ends that are not written are not given here. Peptide text beside a SMILES is read from it.

Legend:
granulosa cells (GCs) = assay: Cell Counting Kit-8 (CCK-8) proliferation and cytotoxicity assay; type: cell-based, human
Method: GCs were isolated at the time of oocyte retrieval from three IVF/ICSI patients with tubal factor infertility as previously reported. Follicular aspirates were centrifuged at 900×g at room temperature. Blood contaminants were removed from GCs by Histopaque™ 1077 (Sigma-Aldrich™, St. Louis, MO, USA) gradient centrifugation at 800×g for 20 min at room temperature. The GC pellet was resuspended in a 20-ml volume of medium [Dulbecco's modified Eagle's medium/Ham's Nutrient Mixture F-12 (Gibco, Thermo Fisher Scientific, Inc., Waltham, MA, USA) with 10% fetal bovine serum (make) and washed by a further 10-min centrifugation at 500×g. The GC pellet was then resuspended in 1 ml GC preparation medium containing 0.02% (w/v) EDTA and gentle repeated pipetting was performed to break up any cellular clumps. Following further washing, the cell stock was resuspended in the GC culture medium. The cells were seeded in nine-well cell culture plates at a density of 100,000 cells/well in medium and incubated for 24 hours with PBS (control), the NegAMHR2BP (SEQ ID NO: 4), or AMHR2BP (SEQ ID NO: 1).
For determination of cytotoxicity of the novel AMHR2BP (SEQ ID NO: 1), a Cell Counting Kit-8 (CCK-8) proliferation and cytotoxicity assay was used. CCK-8 is a as a sensitive colorimetric assay where Dojindo's highly water-soluble tetrazolium salt is reduced by dehydrogenase activities in cells. Living cells reduce the salt, producing a yellow-color formazan dye, which is soluble in the culture media. The amount of dye, generated by the activities of dehydrogenases in GCs, is directly proportional to the number of living cells. CCK-8 detection sensitivity is very high. We tested the following: (a) AMHR2BP (SEQ ID NO: 1) concentrations: 20 μg/ml, 50 μg/ml, 80 μg/ml, in addition to (b) NegAMHR2BP (SEQ ID NO: 4) 80 μg/ml, and (c) untreated cells (control).

AMH-R2 = biological target: T1, AMH-R2 (Homo sapiens, UniProt Q16671); assay: peptide microarray assay identifying AMH receptor binding peptides; settings: microarray signal; for Average: average of Rep 1 and Rep 2; for Rep 1: replicate 1; for Rep 2: replicate 2
T1 construct: GST
T1 sequence (Q16671 18-573): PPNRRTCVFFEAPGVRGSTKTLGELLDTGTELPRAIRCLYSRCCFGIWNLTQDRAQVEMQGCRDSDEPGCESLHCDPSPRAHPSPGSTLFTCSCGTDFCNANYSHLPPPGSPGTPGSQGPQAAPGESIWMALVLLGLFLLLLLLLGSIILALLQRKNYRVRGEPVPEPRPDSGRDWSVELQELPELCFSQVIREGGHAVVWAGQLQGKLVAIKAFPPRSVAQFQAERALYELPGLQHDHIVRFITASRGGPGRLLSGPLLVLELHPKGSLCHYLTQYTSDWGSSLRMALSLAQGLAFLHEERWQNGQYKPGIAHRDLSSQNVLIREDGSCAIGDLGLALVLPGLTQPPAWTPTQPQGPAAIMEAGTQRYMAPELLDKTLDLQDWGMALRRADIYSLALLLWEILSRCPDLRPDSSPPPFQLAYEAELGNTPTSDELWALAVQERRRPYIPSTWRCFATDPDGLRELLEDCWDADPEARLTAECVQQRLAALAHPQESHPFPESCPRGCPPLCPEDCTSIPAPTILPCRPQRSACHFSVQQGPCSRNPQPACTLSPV
Text: In view of the several actions of AMH, and because of the need for AMH receptor agonists and/or antagonist that can modify the activity of one or more of the AMH receptors, provided herein are AMH receptor binding peptides that modulate the activity of the AMH receptor, as described herein. Briefly, it was hypothesized that peptides that bind AMH receptors could be generated based on the amino acid sequence of the AMH biding site of the AMH-R2 receptor. More particularly, based on the amino acid sequence of the AMH-R2 that is responsible for binding AMH, as well as the amino acid sequences of AMH-R2 that are near the AMH binding site, a peptide microarray was used to identify candidate AMH receptor binding peptides that can activate AMH-R2 and thus produce similar effects to native AMH.
To identify candidate AMH receptor binding peptides described herein, a custom peptide library composed of replicate copies of a 124,000 17 mer peptide microarray was synthesized (Arizona State University, Tempe, AZ) using the method described in Legutki, J. B., et al., Scalable high-density peptide arrays for comprehensive health monitoring. Nat Commun., volume 5, 4785 (2014). The slide was assembled into an Arrayit 4×24 Hybridization Cassette and each peptide microarray was blocked with 150 uL of 30% human sera in 1×PBST for 1 hour at room temperature with shaking After blocking, the slide was washed 3× with 1×PBST using a Biotek plate washer prior to addition of protein targets. Each protein sample was diluted in 30% human sera in 1×PBST and 150 uL of each sample was dispensed into the appropriate wells in the cassette and incubated for 1 hour at 37 C with rotation at 300 rpm on a ThermoMix™ 500 heater/shaker.
After incubation, the cassette was dismantled, the slide washed 3 times in 1×PBST, rinsed three times with distilled, deionized water (ddH2O), and dried in a centrifuge for 2 minutes at 800 rpm. Secondary antibody (anti-GST, GE Healthcare™) was prepared at 10 nM in 30% human sera in 1×PBST and dispensed onto the slide. The slide was incubated for 1 hour at 37 C with rotation at 300 rpm as before. The slide was then washed 3 times in 1×PBST, rinsed 3 times with ddH2O, and dried in a centrifuge for 2 minutes at 800 rpm. Detection antibody, 10 nM Alexa Flour 647 donkey anti-goat IgG (H+L) (ThermoFisher Scientific™), was prepared in 0.75% casein in 1×PBST and dispensed onto the slide. The slide was covered and incubated for 1 hour at 37 C with rotation as before. The slide was washed 3 times in 1×PBST, rinsed 3 times with ddH2O, and dried in a centrifuge for 2 minutes at 800 rpm. The slide was scanned on an Innopsys™ Inoscan 910AL scanner and the resulting TIFF files were analyzed using the Genepix™ Pro 6.0 software. Data files were exported and analyzed using Microsoft Excel™ and JMP™ software.

Row | Molecule | Average (AMH-R2) | Rep 1 (AMH-R2) | Rep 2 (AMH-R2) | GCs considered lifeless (granulosa cells (GCs); 20 μg/ml) | GCs that ceased function and were considered lifeless (granulosa cells (GCs); 80 μg/ml) | GC toxicity (granulosa cells (GCs); 80 μg/ml)
1 | CC(C)C[C@@H](NC(=O)[C@@H](C)NC(=O)[C@@H](NC(=O)CNC(=O)[C@H](CO)NC(=O)[C@@H](NC(=O)[C@@H](CCCNC(=N)N)NC(=O)[C@H](Cc1ccccc1)NC(=O)[C@H](CCC(N)=O)NC(=O)[C@H](CC(N)=O)NC(=O)[C@H](Cc1ccc(O)cc1)NC(=O)[C@H](C)NC(=O)[C@H](CC(N)=O)NC(=O)[C@H](CO)NC(=O)CNC(=O)[C@@H](N)C(C)C)C(C)C)C(C)C)C(=O)N[C@@H](CO)C(=O)O [SEQ ID NO: 1, VGSNAYNQFrVSGValS] (H-VGSNAYNQF[dR]VSGV[dA][dL]S-OH) |  |  |  | 23% | 74% | 
2 | CC(C)C[C@@H](NC(=O)[C@@H](C)NC(=O)[C@@H](CCCNC(=N)N)NC(=O)[C@H](CCC(N)=O)NC(=O)[C@H](CC(N)=O)NC(=O)[C@@H](C)NC(=O)[C@H](CC(N)=O)NC(=O)[C@H](C)NC(=O)[C@H](Cc1ccccc1)NC(=O)[C@H](Cc1c[nH]cn1)NC(=O)[C@@H](CCCCN)NC(=O)[C@H](CC(N)=O)NC(=O)[C@H](CO)NC(=O)[C@@H](C)NC(=O)CNC(=O)[C@@H](Cc1c[nH]c2ccccc12)NC(=O)[C@H](N)CCCNC(=N)N)C(=O)O [SEQ ID NO: 4, rwGaSNkHFANaNQral] (H-[dR][dW]G[dA]SN[dK]HFAN[dA]NQ[dR][dA][dL]-OH; N-terminus and C-terminus assumed) |  |  |  |  |  | low GC toxicity
3 | DGlGSVlArkNrrDaVl (DG[dL]GSV[dL]A[dR][dK]N[dR][dR]D[dA]V[dL]) [SEQ ID NO: 5] | 65453 | 65431 | 65475 |  |  | 
4 | EGlQSSAYNNYwrklVa (EG[dL]QSSAYNNY[dW][dR][dK][dL]V[dA]) [SEQ ID NO: 17] | 61198 | 60241 | 62155 |  |  | 
5 | GlQwSFANGQwrGalSG (G[dL]Q[dW]SFANGQ[dW][dR]G[dA][dL]SG) [SEQ ID NO: 12] | 63783 | 64623 | 62943 |  |  | 
6 | GlYwSAYNPwrHValaS (G[dL]Y[dW]SAYNP[dW][dR]HV[dA][dL][dA]S) [SEQ ID NO: 18] | 59177 | 60848 | 57506 |  |  | 
7 | kGGYSNAYkHNPrVlGS ([dK]GGYSNAY[dK]HNP[dR]V[dL]GS) [SEQ ID NO: 7] | 65425 | 65521 | 65329 |  |  | 
8 | kGSNArkNrrDaSGVal ([dK]GSNA[dR][dK]N[dR][dR]D[dA]SGV[dA][dL]) [SEQ ID NO: 20] | 47876 | 52284 | 43467 |  |  | 
9 | rGSYSNlFANSGErVGV ([dR]GSYSN[dL]FANSGE[dR]VGV) [SEQ ID NO: 13] | 63774 | 63996 | 63551 |  |  | 
10 | rGrSQAYNErSGValSG ([dR]G[dR]SQAYNE[dR]SGV[dA][dL]SG) [SEQ ID NO: 10] | 64591 | 63931 | 65250 |  |  | 

Second part, led by results:

Row | Average (AMH-R2) | Rep 1 (AMH-R2) | Rep 2 (AMH-R2) | Molecule | GCs considered lifeless (granulosa cells (GCs); 20 μg/ml) | GCs that ceased function and were considered lifeless (granulosa cells (GCs); 80 μg/ml) | GC toxicity (granulosa cells (GCs); 80 μg/ml)
11 | 61835 | 65284 | 58385 | FNGPSArNFYrHDVaVS (FNGPSA[dR]NFY[dR]HDV[dA]VS) [SEQ ID NO: 14] |  |  | 
12 | 56883 | 55679 | 58087 | GGrSVSANlQrErkVaG (GG[dR]SVSAN[dL]Q[dR]E[dR][dK]V[dA]G) [SEQ ID NO: 19] |  |  | 
13 | 64458 | 65128 | 63787 | GSwSGAHNFrkSGVlSG (GS[dW]SGAHNF[dR][dK]SGV[dL]SG) [SEQ ID NO: 11] |  |  | 
14 | 61488 | 62940 | 60035 | NGrSQAHNlrkaGValS (NG[dR]SQAHN[dL][dR][dK][dA]GV[dA][dL]S) [SEQ ID NO: 15] |  |  | 
15 | 65427 | 65462 | 65391 | VGPSVAYNYrVSGValG (VGPSVAYNY[dR]VSGV[dA][dL]G) [SEQ ID NO: 6] |  |  | 
16 | 65165 | 65176 | 65153 | VGwSFAPNGYrlSGVlG (VG[dW]SFAPNGY[dR][dL]SGV[dL]G) [SEQ ID NO: 9] |  |  | 
17 | 61418 | 60363 | 62472 | YGFPSArVNrYwNrHDa (YGFPSA[dR]VN[dR]Y[dW]N[dR]HD[dA]) [SEQ ID NO: 16] |  |  | 
18 | 65484 | 65502 | 65465 | YwGwSHAkaNQFPNrla (Y[dW]G[dW]SHA[dK][dA]NQFPN[dR][dL][dA]) [SEQ ID NO: 3] |  |  | 
19 | 65335 | 65158 | 65511 | wHGwSGANlFPYrSGVS ([dW]HG[dW]SGAN[dL]FPY[dR]SGVS) [SEQ ID NO: 8] |  |  | 
